Changes are numbered by the printed parent chain.
T1: human GIPR (human, UniProt P48546 22-466)
T1 sequence: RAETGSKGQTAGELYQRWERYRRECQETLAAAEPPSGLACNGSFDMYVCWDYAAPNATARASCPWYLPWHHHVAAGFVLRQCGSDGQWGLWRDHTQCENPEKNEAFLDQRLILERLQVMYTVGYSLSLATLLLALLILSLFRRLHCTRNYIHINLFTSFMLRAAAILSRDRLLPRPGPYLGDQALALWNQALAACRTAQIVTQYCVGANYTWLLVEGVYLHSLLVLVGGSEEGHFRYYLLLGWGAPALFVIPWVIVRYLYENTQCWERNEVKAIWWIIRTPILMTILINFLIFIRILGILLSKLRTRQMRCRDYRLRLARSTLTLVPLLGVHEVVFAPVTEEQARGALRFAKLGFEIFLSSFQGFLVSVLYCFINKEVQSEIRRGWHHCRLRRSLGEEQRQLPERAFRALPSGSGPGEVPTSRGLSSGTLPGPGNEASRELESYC

T2: huGIPR ECD (human, UniProt P48546 21-129, limits assumed)
T2 construct: Soluble analyte of the Biacore assay; also called human GIPR extracellular domain
T2 sequence: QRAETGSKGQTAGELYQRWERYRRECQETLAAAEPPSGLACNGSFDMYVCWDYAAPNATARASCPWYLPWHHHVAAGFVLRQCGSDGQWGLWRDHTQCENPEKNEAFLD

B1: 2G10.316 (antibody, human IgG1, kappa, N297G, V domains shown)
VH: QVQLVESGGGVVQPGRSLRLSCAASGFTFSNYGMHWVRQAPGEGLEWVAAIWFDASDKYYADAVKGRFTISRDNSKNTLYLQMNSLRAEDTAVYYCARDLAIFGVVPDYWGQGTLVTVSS
VL: EIVMTQSPATLSVSPGERATLSCRASQSVFRHLAWYQQKPGQAPRLLIYEAATRATGIPARFSGSGSGTEFTLTISSLQSEDFAVYYCQQYQNWPLTFGGGTKVEIKR
notes: also called SS-26193
B2: 2G10.314 (antibody, human IgG1, kappa, N297G, V domains shown)
VH: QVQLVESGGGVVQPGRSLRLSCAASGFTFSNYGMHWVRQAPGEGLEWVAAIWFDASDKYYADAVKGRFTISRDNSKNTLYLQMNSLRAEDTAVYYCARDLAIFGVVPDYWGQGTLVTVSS
VL: B1 VL with F30H, R31S, Q92N
notes: also called SS-26191
B3: 2G10.329 (antibody, human IgG1, kappa, N297G, V domains shown)
VH: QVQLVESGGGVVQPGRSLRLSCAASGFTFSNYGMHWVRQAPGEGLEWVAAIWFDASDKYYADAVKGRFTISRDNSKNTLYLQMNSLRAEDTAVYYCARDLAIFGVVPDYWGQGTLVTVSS
VL: B1 VL with F30E, R31Q, Q92N
notes: also called SS-26206
B4: 2G10.307 (antibody, human IgG1, kappa, N297G, V domains shown)
VH: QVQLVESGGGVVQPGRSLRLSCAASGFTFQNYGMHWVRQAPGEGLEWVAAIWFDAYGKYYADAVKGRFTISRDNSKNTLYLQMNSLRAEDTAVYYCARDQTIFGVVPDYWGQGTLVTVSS
VL: B1 VL with F30D, Q92N, N93Q
notes: also called SS-26184
B5: 2G10.328 (antibody, human IgG1, kappa, N297G, V domains shown)
VH: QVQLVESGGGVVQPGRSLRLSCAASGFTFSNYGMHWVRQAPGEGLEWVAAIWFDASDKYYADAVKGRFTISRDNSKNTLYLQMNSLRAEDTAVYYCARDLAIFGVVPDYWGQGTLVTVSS
VL: B1 VL with F30S, R31E
B6: 2G10.306 (antibody, human IgG1, kappa, N297G, V domains shown)
VH: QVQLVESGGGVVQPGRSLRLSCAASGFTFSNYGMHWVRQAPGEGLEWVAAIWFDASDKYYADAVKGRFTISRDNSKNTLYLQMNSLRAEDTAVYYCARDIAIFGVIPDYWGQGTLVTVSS
VL: B1 VL with F30L, R31T
notes: also called SS-26183
B7: 2G10.321 (antibody, human IgG1, kappa, N297G, V domains shown)
VH: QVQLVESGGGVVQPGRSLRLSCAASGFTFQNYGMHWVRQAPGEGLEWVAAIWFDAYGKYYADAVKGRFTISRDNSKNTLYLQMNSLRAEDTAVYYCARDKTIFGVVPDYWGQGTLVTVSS
VL: B1 VL with F30N, Q92N, N93Q
B8: 2G10.303 (antibody, human IgG1, kappa, N297G, V domains shown)
VH: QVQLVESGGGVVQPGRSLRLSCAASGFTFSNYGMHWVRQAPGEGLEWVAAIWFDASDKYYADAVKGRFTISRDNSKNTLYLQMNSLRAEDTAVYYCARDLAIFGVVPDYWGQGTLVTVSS
VL: B1 VL with F30D
notes: also called SS-26180
B9: 2G10.322 (antibody, human IgG1, kappa, N297G, V domains shown)
VH: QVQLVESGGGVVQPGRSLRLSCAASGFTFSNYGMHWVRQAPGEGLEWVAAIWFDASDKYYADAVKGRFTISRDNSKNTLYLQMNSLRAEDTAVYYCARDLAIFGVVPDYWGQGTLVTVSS
VL: B1 VL with F30M, R31S
B10: 2G10.327 (antibody, human IgG1, kappa, N297G, V domains shown)
VH: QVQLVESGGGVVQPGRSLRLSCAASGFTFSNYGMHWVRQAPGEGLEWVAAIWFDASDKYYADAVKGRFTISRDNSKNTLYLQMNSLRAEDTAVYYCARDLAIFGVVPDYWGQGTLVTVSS
VL: B1 VL with F30H, R31S, Q92N, N93Q
B11: 2G10.330 (antibody, human IgG1, kappa, N297G, V domains shown)
VH: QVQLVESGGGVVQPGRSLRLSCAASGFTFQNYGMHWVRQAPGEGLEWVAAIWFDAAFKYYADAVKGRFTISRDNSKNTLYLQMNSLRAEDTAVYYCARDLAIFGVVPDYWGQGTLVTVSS
VL: B1 VL with F30D, R31Q, E50Q
notes: also called SS-26207
B12: 2G10.302 (antibody, human IgG1, kappa, N297G, V domains shown)
VH: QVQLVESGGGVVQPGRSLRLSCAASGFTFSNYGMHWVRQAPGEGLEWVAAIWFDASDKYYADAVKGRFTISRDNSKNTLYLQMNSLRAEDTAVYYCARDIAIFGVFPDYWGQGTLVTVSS
VL: B1 VL with R31E, Q92N
notes: also called SS-26179
B13: 2G10.312 (antibody, human IgG1, kappa, N297G, V domains shown)
VH: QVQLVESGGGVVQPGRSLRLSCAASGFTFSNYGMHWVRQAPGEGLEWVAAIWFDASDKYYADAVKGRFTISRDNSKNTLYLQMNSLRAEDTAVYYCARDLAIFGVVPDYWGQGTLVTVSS
VL: B1 VL with R31E, Q92N
notes: also called SS-26189
B14: 2G10.305 (antibody, human IgG1, kappa, N297G, V domains shown)
VH: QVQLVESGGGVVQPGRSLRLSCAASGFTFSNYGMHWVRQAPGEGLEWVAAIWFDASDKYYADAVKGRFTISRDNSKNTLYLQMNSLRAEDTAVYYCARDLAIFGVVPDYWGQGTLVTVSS
VL: B1 VL with F30D, R31V, H32N, E50N
notes: also called SS-26182
B15: 2G10.338 (antibody, human IgG1, kappa, N297G, V domains shown)
VH: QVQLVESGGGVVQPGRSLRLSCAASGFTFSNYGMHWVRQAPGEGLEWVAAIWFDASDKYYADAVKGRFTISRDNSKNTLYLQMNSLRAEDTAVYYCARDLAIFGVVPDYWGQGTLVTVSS
VL: B1 VL with F30H, R31H, Q92N, N93Q
B16: 2G10.309 (antibody, human IgG1, kappa, N297G, V domains shown)
VH: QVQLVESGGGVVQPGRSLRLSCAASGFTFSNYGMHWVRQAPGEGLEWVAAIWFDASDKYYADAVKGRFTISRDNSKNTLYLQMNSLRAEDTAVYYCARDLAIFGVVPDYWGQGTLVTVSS
VL: B1 VL with F30E
notes: also called SS-26186
B17: 2G10.342 (antibody, human IgG1, kappa, N297G, V domains shown)
VH: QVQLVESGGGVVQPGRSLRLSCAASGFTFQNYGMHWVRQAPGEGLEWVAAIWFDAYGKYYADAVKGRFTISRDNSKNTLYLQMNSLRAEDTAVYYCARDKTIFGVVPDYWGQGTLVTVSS
VL: B1 VL with F30E, N93Q
B18: 2G10.304 (antibody, human IgG1, kappa, N297G, V domains shown)
VH: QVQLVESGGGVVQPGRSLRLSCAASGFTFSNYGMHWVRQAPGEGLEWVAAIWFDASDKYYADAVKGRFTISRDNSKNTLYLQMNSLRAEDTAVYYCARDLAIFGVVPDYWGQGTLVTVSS
VL: B1 VL with F30N
notes: also called SS-26181
B19: 2G10.326 (antibody, human IgG1, kappa, N297G, V domains shown)
VH: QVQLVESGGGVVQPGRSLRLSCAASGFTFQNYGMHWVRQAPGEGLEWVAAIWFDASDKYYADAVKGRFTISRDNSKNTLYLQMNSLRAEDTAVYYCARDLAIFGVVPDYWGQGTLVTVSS
VL: B1 VL with F30L, R31S, N93Q
B20: 2G10.332 (antibody, human IgG1, kappa, N297G, V domains shown)
VH: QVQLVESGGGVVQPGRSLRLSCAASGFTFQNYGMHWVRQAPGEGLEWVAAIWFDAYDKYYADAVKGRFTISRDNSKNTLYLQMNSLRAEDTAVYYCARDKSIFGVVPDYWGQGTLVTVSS
VL: B1 VL with F30L, R31S, Q92N
notes: also called SS-26209
B21: 2G10.339 (antibody, human IgG1, kappa, N297G, V domains shown)
VH: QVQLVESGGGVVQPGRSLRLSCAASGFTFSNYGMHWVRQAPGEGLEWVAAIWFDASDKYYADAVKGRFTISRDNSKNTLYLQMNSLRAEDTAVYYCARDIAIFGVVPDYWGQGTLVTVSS
VL: B1 VL with R31Q, H32N, E50Q, Q92N, N93Q
B22: 2G10.308 (antibody, human IgG1, kappa, N297G, V domains shown)
VH: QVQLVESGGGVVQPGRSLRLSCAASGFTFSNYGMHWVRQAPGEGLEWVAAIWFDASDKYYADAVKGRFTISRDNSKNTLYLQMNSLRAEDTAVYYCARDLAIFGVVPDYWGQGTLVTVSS
VL: B1 VL with R31S, N93Q
notes: also called SS-26185
B23: 2G10.301 (antibody, human IgG1, kappa, N297G, V domains shown)
VH: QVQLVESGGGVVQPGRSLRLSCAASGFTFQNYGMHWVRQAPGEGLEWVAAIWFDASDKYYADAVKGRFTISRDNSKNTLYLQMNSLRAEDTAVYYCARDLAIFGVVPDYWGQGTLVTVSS
VL: B1 VL with R31S
notes: also called SS-26178
B24: 2G10.317 (antibody, human IgG1, kappa, N297G, V domains shown)
VH: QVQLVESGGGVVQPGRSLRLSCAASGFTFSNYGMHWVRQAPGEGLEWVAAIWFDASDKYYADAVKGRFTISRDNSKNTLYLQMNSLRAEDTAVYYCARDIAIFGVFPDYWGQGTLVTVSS
VL: B1 VL with F30N, N93Q
notes: also called SS-26194
B25: 2G10.318 (antibody, human IgG1, kappa, N297G, V domains shown)
VH: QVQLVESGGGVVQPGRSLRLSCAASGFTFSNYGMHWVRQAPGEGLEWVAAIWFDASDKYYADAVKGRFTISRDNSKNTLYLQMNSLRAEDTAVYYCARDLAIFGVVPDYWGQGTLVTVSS
VL: B1 VL with F30L, R31S, Q92N
B26: 2G10.336 (antibody, human IgG1, kappa, N297G, V domains shown)
VH: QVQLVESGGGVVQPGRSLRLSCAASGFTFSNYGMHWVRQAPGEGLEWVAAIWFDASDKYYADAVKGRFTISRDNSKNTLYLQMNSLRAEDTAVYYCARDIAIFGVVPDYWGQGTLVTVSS
VL: B1 VL with F30Q, R31S
notes: also called SS-26213
B27: 2G10.340 (antibody, human IgG1, kappa, N297G, V domains shown)
VH: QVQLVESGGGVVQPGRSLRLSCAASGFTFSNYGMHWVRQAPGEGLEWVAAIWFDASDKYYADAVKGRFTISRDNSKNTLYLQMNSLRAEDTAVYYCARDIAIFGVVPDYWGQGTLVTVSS
VL: B1 VL with F30H, R31T, H32N, E50N
B28: 2G10.345 (antibody, human IgG1, kappa, N297G, V domains shown)
VH: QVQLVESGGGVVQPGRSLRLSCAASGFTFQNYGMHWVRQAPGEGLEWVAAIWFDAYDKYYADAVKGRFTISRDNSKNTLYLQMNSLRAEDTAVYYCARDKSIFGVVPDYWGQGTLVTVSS
VL: B1 VL with F30N, Q92N
B29: 2G10.344 (antibody, human IgG1, kappa, N297G, V domains shown)
VH: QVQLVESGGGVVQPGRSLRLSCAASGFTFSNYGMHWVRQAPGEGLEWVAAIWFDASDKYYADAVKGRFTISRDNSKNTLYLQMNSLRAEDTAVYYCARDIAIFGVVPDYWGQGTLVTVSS
VL: B1 VL with F30S, R31S, N93Q
B30: 2G10.333 (antibody, human IgG1, kappa, N297G, V domains shown)
VH: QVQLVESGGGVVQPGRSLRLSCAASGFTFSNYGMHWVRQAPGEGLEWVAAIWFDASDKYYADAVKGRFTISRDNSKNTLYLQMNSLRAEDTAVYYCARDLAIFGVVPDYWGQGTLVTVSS
VL: B1 VL with F30S, N93H
notes: also called SS-26210
B31: 2G10.325 (antibody, human IgG1, kappa, N297G, V domains shown)
VH: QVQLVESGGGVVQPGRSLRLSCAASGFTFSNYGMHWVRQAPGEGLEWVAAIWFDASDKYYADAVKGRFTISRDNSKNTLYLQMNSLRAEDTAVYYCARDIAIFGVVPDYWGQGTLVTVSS
VL: B1 VL with R31E, Q92N, N93Q
B32: 2G10.323 (antibody, human IgG1, kappa, N297G, V domains shown)
VH: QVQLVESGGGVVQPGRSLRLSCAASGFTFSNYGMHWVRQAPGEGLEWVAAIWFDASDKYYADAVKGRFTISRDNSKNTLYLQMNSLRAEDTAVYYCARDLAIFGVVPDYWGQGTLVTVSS
VL: B1 VL with F30H
B33: 2G10.337 (antibody, human IgG1, kappa, N297G, V domains shown)
VH: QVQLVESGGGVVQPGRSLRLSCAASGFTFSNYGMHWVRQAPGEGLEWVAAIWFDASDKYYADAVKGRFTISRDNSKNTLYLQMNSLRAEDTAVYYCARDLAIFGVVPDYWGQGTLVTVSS
VL: B1 VL with F30D, R31V, H32N, Q92N, N93Q
notes: also called SS-26214
B34: 2G10.324 (antibody, human IgG1, kappa, N297G, V domains shown)
VH: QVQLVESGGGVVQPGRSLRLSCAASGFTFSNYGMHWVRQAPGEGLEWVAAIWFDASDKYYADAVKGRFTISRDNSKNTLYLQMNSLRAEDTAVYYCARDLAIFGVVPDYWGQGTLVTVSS
VL: B1 VL with F30L, R31S
B35: 2G10.341 (antibody, human IgG1, kappa, N297G, V domains shown)
VH: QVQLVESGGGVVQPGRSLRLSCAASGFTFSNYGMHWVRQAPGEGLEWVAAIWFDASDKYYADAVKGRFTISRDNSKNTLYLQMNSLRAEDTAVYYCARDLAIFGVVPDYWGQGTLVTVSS
VL: B1 VL with F30D, R31V, Q92N, N93Q
B36: 2G10.334 (antibody, human IgG1, kappa, N297G, V domains shown)
VH: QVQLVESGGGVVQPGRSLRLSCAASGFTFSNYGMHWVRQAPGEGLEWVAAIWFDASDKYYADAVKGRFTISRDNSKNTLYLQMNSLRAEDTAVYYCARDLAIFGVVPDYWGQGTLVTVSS
VL: B1 VL with F30N, R31L, H32N, E50Q, Q92N, N93Q
notes: also called SS-26211
B37: 2G10.315 (antibody, human IgG1, kappa, N297G, V domains shown)
VH: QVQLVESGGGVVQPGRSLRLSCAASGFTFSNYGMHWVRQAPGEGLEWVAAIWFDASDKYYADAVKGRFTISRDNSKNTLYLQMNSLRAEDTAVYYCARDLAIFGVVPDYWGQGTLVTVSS
VL: B1 VL with F30L, R31T
notes: also called SS-26192
B38: 2G10.319 (antibody, human IgG1, kappa, N297G, V domains shown)
VH: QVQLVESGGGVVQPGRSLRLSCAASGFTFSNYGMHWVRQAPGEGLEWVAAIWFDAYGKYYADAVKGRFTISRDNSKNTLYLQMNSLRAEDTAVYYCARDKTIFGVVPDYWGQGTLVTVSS
VL: B1 VL
B39: 2G10.313 (antibody, human IgG1, kappa, N297G, V domains shown)
VH: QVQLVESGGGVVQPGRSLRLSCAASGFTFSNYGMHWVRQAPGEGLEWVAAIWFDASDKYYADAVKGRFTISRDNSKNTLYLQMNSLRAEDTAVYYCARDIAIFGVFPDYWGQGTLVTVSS
VL: B1 VL with F30D, Q92N, N93Q
notes: also called SS-26190
B40: 2G10.343 (antibody, human IgG1, kappa, N297G, V domains shown)
VH: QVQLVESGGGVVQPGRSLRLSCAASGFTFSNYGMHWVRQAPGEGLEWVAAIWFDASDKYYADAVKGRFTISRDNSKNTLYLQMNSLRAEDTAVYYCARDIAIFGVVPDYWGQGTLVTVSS
VL: B1 VL with F30L, R31E, Q92N
B41: 2G10.311 (antibody, human IgG1, kappa, N297G, V domains shown)
VH: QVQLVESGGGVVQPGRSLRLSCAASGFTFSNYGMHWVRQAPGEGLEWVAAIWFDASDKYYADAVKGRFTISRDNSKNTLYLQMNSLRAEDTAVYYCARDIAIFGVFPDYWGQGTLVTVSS
VL: B1 VL with F30N, R31V, E50Q, Q92N, N93Q
notes: also called SS-26188
B42: 2G10.335 (antibody, human IgG1, kappa, N297G, V domains shown)
VH: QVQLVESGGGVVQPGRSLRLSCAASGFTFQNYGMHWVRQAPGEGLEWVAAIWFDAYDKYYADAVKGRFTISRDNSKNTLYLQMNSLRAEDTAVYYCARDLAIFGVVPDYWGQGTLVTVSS
VL: B1 VL with F30T, R31S, Q92N, N93Q
notes: also called SS-26212
B43: 2G10.331 (antibody, human IgG1, kappa, N297G, V domains shown)
VH: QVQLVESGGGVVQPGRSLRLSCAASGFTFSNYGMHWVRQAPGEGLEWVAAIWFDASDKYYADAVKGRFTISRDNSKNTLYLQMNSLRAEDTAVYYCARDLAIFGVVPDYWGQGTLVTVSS
VL: B1 VL with F30D, R31L
notes: also called SS-26208

target: T1, human GIPR; experiment: cell-based or functional assay

cAMP IC50	Binder
14.7 nM	B1
17.5 nM	B2
26.8 nM	B3
17.4 nM	B4
24.4 nM	B5
20.7 nM	B6
7.46 nM	B7
23.1 nM	B8
17.9 nM	B9
19.3 nM	B10
18.6 nM	B11
19.9 nM	B12
23.2 nM	B13
27.2 nM	B14
23.4 nM	B15
29.5 nM	B16
11.6 nM	B17
16.9 nM	B18
26.6 nM	B19
12.9 nM	B20
22.6 nM	B21
18.3 nM	B22

cAMP IC50	Binder
17.6 nM	B23
13.7 nM	B24
20.9 nM	B25
29.6 nM	B26
25.9 nM	B27
18.9 nM	B28
21.9 nM	B29
12.1 nM	B30
26.2 nM	B31
17.4 nM	B32
32.5 nM	B33
14.1 nM	B34
24.7 nM	B35
13.7 nM	B36
22 nM	B37
7.9 nM	B38
20.7 nM	B39
37.6 nM	B40
14.9 nM	B41
25.9 nM	B42
19.7 nM	B43

target: T2, huGIPR ECD; experiment: SPR (Biacore T200), mAb captured via goat anti-huFc, 200 nM huGIPR ECD analyte
Description: Immobilization of Goat-anti-huFc antibody to a S-CM5 sensor chip surface was performed according to manufacturer's instructions. The Biacore instrument running buffer is 0.005% P20/PBS 1×, pH7.4, no calcium chloride, no magnesium chloride. Briefly, carboxyl groups on the sensor chip surfaces were activated by injecting 60 μL of a mixture containing 0.2 M N-ethyl-N′-(dimethylaminopropyl) carbodiimide (EDC) and 0.05 M N-hydroxysuccinimide (NHS). Goat-anti-huFc antibody was diluted in 10 mM sodium acetate, pH 4.0 at 20 μg/ml and injected over the activated chip surface at 30 uL/min for 6 minutes. Excess reactive groups on the surfaces were deactivated by injecting 60 μL of 1 M ethanolamine. Final immobilized level was ˜8000 resonance units (RU).
Binding assays were carried out on the immobilized goat anti-huFc antibody surface by Biacore T200. The experiment was performed at 25° C. The instrument running buffer was 0.005% P20/PBS. The goat anti-huFc capture antibody was covalently attached to the sensor chip surface via standard amine coupling to flow cells channel 1-4. The anti-huGIPR antibodies were diluted in sample buffer (0.1 mg/ml BSA, 0.005% P20, PBS) to ˜10 nM then captured to flow cells channel 2, 3, 4. Flow cell channel 1 was as a blank reference surface without injection of anti-huGIPR antibody. The captured antibody response range was ˜250 RU. Then 200 nM huGIPR ECD was injected over the goat anti-huFc antibody captured anti-huGIPR antibody surfaces at flow rate 50 ul/min for 3 minutes. After a 10 minutes dissociation, each surface was regenerated by injecting 10 mM Glycine, pH 1.5 for 30 seconds twice.

koff	Binder
< 5e-05 s⁻¹	B1
6e-05 s⁻¹	B2
6e-05 s⁻¹	B3
6e-05 s⁻¹	B4
7e-05 s⁻¹	B5
< 5e-05 s⁻¹	B6
< 5e-05 s⁻¹	B7
7e-05 s⁻¹	B8
6e-05 s⁻¹	B9
< 5e-05 s⁻¹	B10
< 5e-05 s⁻¹	B11
< 5e-05 s⁻¹	B12
< 5e-05 s⁻¹	B13
< 5e-05 s⁻¹	B14
8e-05 s⁻¹	B15
< 5e-05 s⁻¹	B16
< 5e-05 s⁻¹	B17
< 5e-05 s⁻¹	B18
6e-05 s⁻¹	B19
6e-05 s⁻¹	B20
7e-05 s⁻¹	B21
< 5e-05 s⁻¹	B22

koff	Binder
7e-05 s⁻¹	B23
< 5e-05 s⁻¹	B24
< 5e-05 s⁻¹	B25
0.0002 s⁻¹	B26
6e-05 s⁻¹	B27
8e-05 s⁻¹	B28
6e-05 s⁻¹	B29
< 5e-05 s⁻¹	B30
< 5e-05 s⁻¹	B31
< 5e-05 s⁻¹	B32
< 5e-05 s⁻¹	B33
< 5e-05 s⁻¹	B34
7e-05 s⁻¹	B35
6e-05 s⁻¹	B36
< 5e-05 s⁻¹	B37
6e-05 s⁻¹	B38
< 5e-05 s⁻¹	B39
6e-05 s⁻¹	B40
6e-05 s⁻¹	B41
6e-05 s⁻¹	B42
5e-05 s⁻¹	B43
